In data set [1] the target is T1, PolY (Y-family TLS DNA polymerase) (Saccharolobus/Sulfolobus solfataricus …, UniProt Q97W02 1-352).
T1 sequence: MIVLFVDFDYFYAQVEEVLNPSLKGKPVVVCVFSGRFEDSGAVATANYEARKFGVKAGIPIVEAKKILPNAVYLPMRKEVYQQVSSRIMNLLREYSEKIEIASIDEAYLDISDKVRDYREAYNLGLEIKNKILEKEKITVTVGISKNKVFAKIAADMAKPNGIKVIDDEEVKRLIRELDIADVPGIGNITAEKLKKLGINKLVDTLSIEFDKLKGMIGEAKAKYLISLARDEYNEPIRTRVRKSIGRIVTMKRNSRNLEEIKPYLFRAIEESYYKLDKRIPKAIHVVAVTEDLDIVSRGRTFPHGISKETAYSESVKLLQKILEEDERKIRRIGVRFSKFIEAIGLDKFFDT
Briefly: fluorescence anisotropy; Fluorescence anisotropy, 4 nM DNA, room temperature, 90 s incubation, Hill fit, mean of three titrations; binding buffer not stated in the material (as in ref 38). The settings on record: protein: recombinant, label: 5'-FAM on primer (strand 1), primer-template. (Fluorescence polarisation rises when a labelled molecule tumbles more slowly, as on binding a larger partner.)

The target in data set [2] is T2, PCNA123 (Saccharolobus solfataricus) (UniProt P57766).
T2 sequence 1: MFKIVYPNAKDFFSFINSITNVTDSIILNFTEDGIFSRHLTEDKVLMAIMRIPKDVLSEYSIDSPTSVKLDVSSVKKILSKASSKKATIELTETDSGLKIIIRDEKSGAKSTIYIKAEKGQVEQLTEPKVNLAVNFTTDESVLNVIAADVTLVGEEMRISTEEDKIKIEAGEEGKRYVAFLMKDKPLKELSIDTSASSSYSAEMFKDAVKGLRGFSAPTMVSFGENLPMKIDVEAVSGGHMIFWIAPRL
T2 sequence 2: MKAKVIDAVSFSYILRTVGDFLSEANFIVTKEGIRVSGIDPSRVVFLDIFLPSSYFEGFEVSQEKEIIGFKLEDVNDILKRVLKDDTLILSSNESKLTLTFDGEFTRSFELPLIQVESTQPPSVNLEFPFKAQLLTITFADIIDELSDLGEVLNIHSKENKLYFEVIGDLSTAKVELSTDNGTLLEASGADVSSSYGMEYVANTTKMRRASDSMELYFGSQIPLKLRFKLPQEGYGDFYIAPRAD
T2 sequence 3: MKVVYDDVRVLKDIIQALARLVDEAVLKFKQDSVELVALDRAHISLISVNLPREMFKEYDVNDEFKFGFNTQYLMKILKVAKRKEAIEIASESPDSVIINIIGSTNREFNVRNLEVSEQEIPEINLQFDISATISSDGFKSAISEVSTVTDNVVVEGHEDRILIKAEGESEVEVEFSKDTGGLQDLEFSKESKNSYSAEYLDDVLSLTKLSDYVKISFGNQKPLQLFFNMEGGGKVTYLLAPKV

Data set [3] addresses T2, PCNA123 (Saccharolobus solfataricus). The source holds these as a separate data set.
[4] abbreviates: 5' overhang 30 nt on template (strand 2).
Setting [5] is: 5' overhang 26 nt on template (strand 2).

B1: p22-FAM/t52Und (-1, undamaged) (dsDNA)
DNA 1: GCGAGGCGAGCGCGAGCGATAC
DNA 2: CGTCCAACATGAAGCTTGCACTCGATCGCGGTATCGCTCGCGCTCGCCTCGC
With B1, the dissociation constant Kd (commonly the constant that tells how readily two partners part at equilibrium) in data set [1] (setting [4]) was found to be 16.1 ± 0.4 nM.

B2: p26-FAM/t52Und (+3, undamaged) (dsDNA)
DNA 1: GCGAGGCGAGCGCGAGCGATACCGCG
DNA 2: B1 DNA 2
With B2, the equilibrium dissociation constant (Kd) in data set [1] (setting [5]) was found to be 31.2 ± 3.5 nM.

B3: p22-FAM/t528 (-1, 8-oxoG) (dsDNA)
DNA 1: GCGAGGCGAGCGCGAGCGATAC
DNA 2: B1 DNA 2
modifications: 8-oxoguanine at position 30 from 5' of strand 2 (23 from 3' end), written as G
Turning to B3, the equilibrium dissociation constant (Kd) in data set [1] (setting [4]) was 25.9 ± 8.2 nM.

B4: p26-FAM/t528 (+3, 8-oxoG) (dsDNA)
DNA 1: GCGAGGCGAGCGCGAGCGATACCGCG
DNA 2: B1 DNA 2
modifications: 8-oxoguanine at position 30 from 5' of strand 2 (23 from 3' end), written as G
On to B4, for which the Kd in data set [1] (setting [5]) came to 13 ± 0.4 nM.

B5: PolB1 (enzyme)
chain: MTKQLTLFDIPSSKPAKSEQNTQQSQQSAPVEEKKVVRREWLEEAQENKIYFLLQVDYDGKKGKAVCKLFDKETQKIYALYDNTGHKPYFLVDLEPDKVGKIPKIVRDPSFDHIETVSKIDPYTWNKFKLTKIVVRDPLAVRRLRNDVPKAYEAHIKYFNNYMYDIGLIPGMPYVVKNGKLESVYLSLDEKDVEEIKKAFADSDEMTRQMAVDWLPIFETEIPKIKRVAIDIEVYTPVKGRIPDSQKAEFPIISIALAGSDGLKKVLVLNRNDVNEGSVKLDGISVERFNTEYELLGRFFDILLEYPIVLTFNGDDFDLPYIYFRALKLGYFPEEIPIDVAGKDEAKYLAGLHIDLYKFFFNKAVRNYAFEGKYNEYNLDAVAKALLGTSKVKVDTLISFLDVEKLIEYNFRDAEITLQLTTFNNDLTMKLIVLFSRISRLGIEELTRTEISTWVKNLYYWEHRKRNWLIPLKEEILAKSSNIRTSALIKGKGYKGAVVIDPPAGIFFNITVLDFASLYPSIIRTWNLSYETVDIQQCKKPYEVKDETGEVLHIVCMDRPGITAVITGLLRDFRVKIYKKKAKNPNNSEEQKLLYDVVQRAMKVFINATYGVFGAETFPLYAPAVAESVTALGRYVITSTVKKAREEGLTVLYGDTDSLFLLNPPKNSLENIIKWVKTTFNLDLEVDKTYKFVAFSGLKKNYFGVYQDGKVDIKGMLVKKRNTPEFVKKVFNEVKELMISINSPNDVKEIKRKIVDVVKGSYEKLKNKGYNLDELAFKVMLSKPLDAYKKNTPQHVKAALQLRPFGVNVLPRDIIYYVKVRSKDGVKPVQLAKVTEIDAEKYLEALRSTFEQILRAFGVSWDEIAATMSIDSFFSYPSKGNS
In data set [2], B5 had an observed rate constant (kobs) of extension from primer p26 (+3), Scheme vi: PolB1 added at initiation to DNA pre-loaded with PCNA123 and RFC; rapid quench, 40°C of 2.1 s⁻¹.

B6: PolY (enzyme)
chain: T1 sequence
On to B6, for which the observed rate constant (kobs) of 8-oxoG lesion bypass from primer p22 (-1), Scheme ii: PolY added at initiation to DNA pre-loaded with PCNA123 and RFC; rapid quench, 40°C in data set [3] amounted to 0.22 s⁻¹.

The values above are taken from article PMC7641752, “A hand-off of DNA between archaeal polymerases allows high-fidelity replication to resume at a discrete intermediate three bases past 8-oxoguanine”.
